Article doi:10.1101/2022.05.13.491770 (bioRxiv, 2022)

Experiments:
[1] = target: SARS-CoV-2 WA.1 spike protein (V-PLEX COVID-19 Panel 24) (SARS-CoV-2 WA.1 (ancestral), UniProt P0DTC2, strain); test: electrochemiluminescence multiplex binding assay
[2] = target: recombinant SARS-CoV-2 RBD (SARS-CoV-2, ancestral strain (assumed), UniProt P0DTC2); test: BLI

B1: 002-S21F2 full-length immunoglobulin G (IgG) (antibody, V domains shown)
VH: EVQLVQSGAEVKKPGESLKISCKASGYNFAYYWIGWVRQMPGKGLEWMGIIYPGDSDTRYSPSFQGQVTISADKSISTAYLQWSSLKASDTAMYYCARGEMTAVFGDYWGQGTLVTVSS
VL: DIQMTQSPSSLSASVGDRVTITCQASQDISNYLNWYQQKPGKAPKLLIYDASNLETGVPSRFSGSGSGTDFTLTISSLQPEDIATYYCQQYKILLTWTFGQGTKVEIK
**Q.** Does B1 bind [1]?
**A.** Result: binds

**Q.** Does B1 bind [2]?
**A.** Result: binds
